According to IntAct's records for PubMed 19933576:

B1: Prelamin-A/C (Homo sapiens), P02545 (parent)
chain: METPSQRRATRSGAQASSTPLSPTRITRLQEKEDLQELNDRLAVYIDRVRSLETENAGLRLRITESEEVVSREVSGIKAAYEAELGDARKTLDSVAKERARLQLELSKVREEFKELKARNTKKEGDLIAAQARLKDLEALLNSKEAALSTALSEKRTLEGELHDLRGQVAKLEAALGEAKKQLQDEMLRRVDAENRLQTMKEELDFQKNIYSEELRETKRRHETRLVEIDNGKQREFESRLADALQELRAQHEDQVEQYKKELEKTYSAKLDNARQSAERNSNLVGAAHEELQQSRIRIDSLSAQLSQLQKQLAAKEAKLRDLEDSLARERDTSRRLLAEKEREMAEMRARMQQQLDEYQELLDIKLALDMEIHAYRKLLEGEEERLRLSPSPTSQRSRGRASSHSSQTQGGGSVTKKRKLESTESRSSFSQHARTSGRVAVEEVDEEGKFVRLRNKSNEDQSMGNWQIKRQNGDDPLLTYRFPPKFTLKAGQVVTIWAAGAGATHSPPTDLVWKAQNTWGCGNSLRTALINSTGEEVAMRKLVRSVTVVEDDEDEDGDDLLHHHHGSHCSSSGDPAEYNLRSRTVLCGTCGQPADKASASGSGAQVGGPISSGSSASSVTVTRSYRSVGGSGGGSFGDNLVTRSYLLGNSSPRTQSPQNCSIM
partner: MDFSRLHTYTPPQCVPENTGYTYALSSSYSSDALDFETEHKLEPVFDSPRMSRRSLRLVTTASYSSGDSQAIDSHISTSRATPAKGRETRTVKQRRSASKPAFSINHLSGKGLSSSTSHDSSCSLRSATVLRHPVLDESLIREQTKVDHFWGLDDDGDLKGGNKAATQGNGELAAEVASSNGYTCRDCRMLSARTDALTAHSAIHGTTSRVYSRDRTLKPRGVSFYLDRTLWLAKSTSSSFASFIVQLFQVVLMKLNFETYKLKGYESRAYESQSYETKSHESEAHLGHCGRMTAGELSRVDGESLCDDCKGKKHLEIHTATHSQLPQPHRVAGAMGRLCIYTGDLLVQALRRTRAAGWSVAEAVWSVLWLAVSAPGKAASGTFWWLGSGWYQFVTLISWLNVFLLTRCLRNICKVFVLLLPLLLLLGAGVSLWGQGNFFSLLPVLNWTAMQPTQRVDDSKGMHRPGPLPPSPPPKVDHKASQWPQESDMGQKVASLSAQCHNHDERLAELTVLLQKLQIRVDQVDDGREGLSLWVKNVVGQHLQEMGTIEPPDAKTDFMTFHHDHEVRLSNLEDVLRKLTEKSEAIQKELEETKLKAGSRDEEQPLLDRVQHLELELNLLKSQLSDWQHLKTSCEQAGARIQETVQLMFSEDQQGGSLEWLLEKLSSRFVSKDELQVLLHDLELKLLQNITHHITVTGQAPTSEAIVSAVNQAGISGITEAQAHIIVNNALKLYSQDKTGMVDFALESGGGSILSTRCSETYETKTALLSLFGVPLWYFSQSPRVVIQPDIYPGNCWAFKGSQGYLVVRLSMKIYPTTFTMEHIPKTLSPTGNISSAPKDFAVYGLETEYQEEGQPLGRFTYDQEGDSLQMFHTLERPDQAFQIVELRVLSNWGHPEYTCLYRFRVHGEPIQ

Variants of: B1
Details: with sun1_mouse Sun1, Q9D666

Q: R527P was tested. Which “effect of a mutation on the interaction” value did it give?
A: The value was “disrupting interaction”.

Q: L530P was tested. Which “effect of a mutation on the interaction” value did it give?
A: Its value is “disrupting interaction”.
